According to patent US20200199244A1 (published 2020):
Where a chain is given by its changes, count along the chain named.

B1: BMS3h-56-258 (other)
VH: EVQLLESGGGLVQPGGSLRLSCAASGFTFRDYEMWWVRQAPGKGLERVSAINPQGTRTYYADSVKGRFTISRDNSKNTLYLQMNSLRAEDTAVYYCAKLPFYFHEWGQGTLVTVSS
B2: BMS3h-56-261 (other)
VH: B1 VH with Y102F, H104Q
B3: BMS3h-56-262 (other)
VH: B1 VH with F101Q, Y102L, E105D, W106R
B4: BMS3h-56-265 (other)
VH: B1 VH with F101Q, Y102L, H104Q, E105D
B5: BMS3h-56-266 (other)
VH: B1 VH with Y102F
B6: BMS3h-56-269 (other)
VH: B1 VH with Y102R, H104S, E105D, W106R
B7: BMS3h-56-270 (other)
VH: B1 VH with F101T, Y102L, H104Q, E105D
B8: BMS3h-56-6 (other)
VH: B1 VH with T28S, V37Y, Y102I, H104D, E105N, W106R
B9: BMS3h-56-7 (other)
VH: B1 VH with A92S, Y95H, L99P, Y102I, H104G, E105D, Q108P
B10: BMS3h-56-8 (other)
VH: B1 VH with L18R, Y102T, H104E, E105D
B11: BMS3h-56-9 (other)
VH: B1 VH with K65M, Y102M, H104D, E105D, W106R
B12: BMS3h-56-15 (other)
VH: B1 VH with Q39R, Y102T, H104E, E105D
B13: BMS3h-56-19 (other)
VH: B1 VH with Y95H, Y102T, H104E, E105D
B14: BMS3h-56-21 (other)
VH: B1 VH with A97L, Y102T, H104E, E105D
B15: BMS3h-5 (other)
VH: EVQLLESGGGLVQPGGSLRLSCAASGFTFDEHDMSWVRQAPGKGLEWVSRIGPDGFHTYYADSVKGRFTISRDNSKNTLYLQMNSLRAEDTAVYYCAKGRIPTLHFDYWGQGTLVTVSS
B16: BMS3h-131-6 (other)
VL: DIQMTVSPSSLSASVGDRVTITCRANSSILWALAWYQQKPGKAPKLLIESSSGLQSGVPSRFSGSGSGTDFTLTISSLQPEDFATYYCVQNAVWPGTFGQGTKVEIKR
B17: BMS3h-131-14 (other)
VL: B16 VL with V6Q, S67T, S77G, G99D
B18: BMS3h-193 (other)
VL: DIQMTQSPSSLSASVGDRVTITCRASQTIERRLNWYQQKPGKAPKLLIYLASRLQSGVPSRFSGSGSGTDFTLTISSLQPEDFATYYCHQYASPPLTFGQGTKVEIKR
B19: BMS3h-193-12 (other)
VL: B18 VL with A92E
B20: BMS3h-193-16 (other)
VL: B18 VL with T28A, F98L
B21: BMS3h-193-19 (other)
VL: B18 VL with D70E, A92E
B22: BMS3h-8 (other)
VH: EVQLLESGGGLVQPGGSLRLSCAASGFTFPSEEMSWVRQAPGKGLEWVSRISADGANTYYADSVKGRFTISRDNSKNTLYLQMNSLRAEDAAVYYCAKGRVPDLLFDYWGQGTLVTVSS
B23: BMS3h-28 (other)
VH: EVQLLESGGGLVQPGGSLRLSCAASGFTFGDVPMSWVRQAPGKGLEWVSRIDPYGSNTYYADSVKGRFTISRDNSKNTLYLQMNSLRAEDTAVYYCAKGIMPSLTFDYWGQGTLVTVSS
B24: BMS3h-33 (other)
VH: EVQLLESGGGLVQPGGSLRLSCAASGFTFLSYPMHWVRQAPGKGLEWVSSIDSRGSVTYYADSVKGRFTISRDNSKNTLYLQMNSLRAEDTAVYYCAKGHSWTFDYWGQGTLVTVSS
B25: BMS3h-48 (other)
VH: EVQLLESGGGLVQPGGSLRLSCAASGFTFADHGMTWVRQAPGKGLEWVSGIGPSGEATYYADSVKGRFTISRDNSKNTLYLQMNSLRAEDTAVYYCAKDRIPNLVFDYWGQGTLVTVSS
B26: BMS3h-52 (other)
VH: EVQLLESGGGLVQPGESLRLSCAASGFTFSAYDMTWVRQAPGKGLEWVSRINPTGSYTYYADSVKGRFTISRDNSKNTLYLQMNSLRAEDTAVYYCAKAKIPNLVFDYWGQGTLVTVSS
B27: BMS3h-57 (other)
VH: EVQLLESGGGLVQPGGSLRLSCAASGFTFSHEDMTWVRQAPGKGLEWVSSISPNGWDTYYADSVKGRFTISRDNSKNTLYLQMNSLRAEDTAVYYCAKRTRSKFDYWGQGTLVTVSS
B28: BMS3h-61 (other)
VH: EVQLLESGGGLVQPGGSLRLSCAASGFTFGTTEMAWVRQAPGKGLEWVSSIGSAGAWTYYADSVKGRFTISRDNSKNTLYLQMNSLRAEDTAVYYCAKIGGHPQGQFDYWGQGTLVTVSS
B29: BMS3h-88 (other)
VH: EVQLLESGGGLVQPGGSLRLSCAASGFTFHETEMTWVRQAPGKGLEWVSAINRLGQDTYYADSVKGRFTISRDNSKNTLYLQMNSLRAEDTAVYYCAKGRIPGLVFDYWGQGTLVTVSS
B30: BMS3h-102 (other)
VH: B15 VH with D30S, H32A, D33E, S35N, G52T, P53T, F56D, H57S
B31: BMS3h-112 (other)
VH: EVQLLESGGGLVQPGGSLRLSCAASGFTFGESDMKWVRQAPGKGLEWVSSISPNGWDTYYADSVKGRFTISRDNSKNTLYLQMNSLRAEDTAVYYCAKSPSSRLKFDYWGQGTLVTVSS
B32: BMS3h-207 (other)
VH: EVQLLESGGGLVQPGGSLRLSCAASGFTFSNQDMTWVRQAPGKGLEWVSSIDSSGQLTYYADSVKGRFTISRDNSKNTLYLQMNSLRAEDTAVYYCAKVKSLARFDYWGQGTLVTVSS
B33: BMS3h-208 (other)
VH: B27 VH with S30P, H31E, E32S, T35K, R99P, T100A, R101Q, S102V, K103L
B34: BMS3h-37-1 (other)
VH: EVQLLESGGGLVQPGGSLRLSCAASGFTFEWYEMQWVRQAPGKGLEWVSAISGDGYRTYYADSVKGRFTISRDNSMNTLYLQMNSLRAEDTAVYYCAKELGYFDYRGRGTLVTVSS
B35: BMS3h-37-202 (other)
VH: B34 VH with Q39R, Y56W, M76K, R106W
B36: BMS3h-37-205 (other)
VH: B34 VH with Q39R, M76K, G101E, R106W
B37: BMS3h-37-206 (other)
VH: B34 VH with Q39R, M76K, E99G, G101E, R106W
B38: BMS3h-37-207 (other)
VH: B34 VH with Q39R, M76K, G101A, Y102F, R106W
B39: BMS3h-37-212 (other)
VH: B34 VH with Q13R, Q39R, M76K, G101E, Y102F, R106W

Target: human CD40 (human, UniProt P25942 21-277)
Assay: cell-based or functional assay

Chain of human CD40 (P25942 21-277 limits assumed): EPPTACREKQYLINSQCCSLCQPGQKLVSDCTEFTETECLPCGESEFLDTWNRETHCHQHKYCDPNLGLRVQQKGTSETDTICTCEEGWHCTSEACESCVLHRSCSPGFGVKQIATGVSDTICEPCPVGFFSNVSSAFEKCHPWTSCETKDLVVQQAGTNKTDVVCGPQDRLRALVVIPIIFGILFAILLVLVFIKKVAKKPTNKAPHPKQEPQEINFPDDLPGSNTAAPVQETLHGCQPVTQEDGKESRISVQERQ

First: B1
Second: B2
The “CHO-hCD40L-driven DC Activation IL-12 EC50” value of the first is 2-fold lower: 1.52 nM for the first, 3 nM for the second.

Compared with B5, B6 is 1.6-fold lower in “CHO-hCD40L-driven DC Activation IL-12 EC50” value: 2.8 nM for the first, 1.8 nM for the second.

Going from B35 to B36, the “CHO-hCD40L-driven DC Activation IL-12 EC50” value falls from 10 nM to 6.6 nM (1.5-fold).

B37 and B38 are within 1.5-fold of each other in “CHO-hCD40L-driven DC Activation IL-12 EC50” value: 23 nM for the first, 15.5 nM for the second.

Compared with B1, B2 is 2.3-fold higher in “CHO-hCD40L-driven Human B Cell Proliferation EC50” value: 11 nM for the first, 25.5 nM for the second.

B5 and B6 are within 1.5-fold of each other in “CHO-hCD40L-driven Human B Cell Proliferation EC50” value: 19.5 nM for the first, 15 nM for the second.

B15 and B22 cannot be ordered by “CHO-hCD40L-driven Human B Cell Proliferation EC50” value: greater than 7000 nM for the first, greater than 7000 nM for the second.

B23 and B24 cannot be ordered by “CHO-hCD40L-driven Human B Cell Proliferation EC50” value: greater than 7000 nM for the first, greater than 7000 nM for the second.

B25 and B26 cannot be ordered by “CHO-hCD40L-driven Human B Cell Proliferation EC50” value: greater than 7000 nM for the first, greater than 7000 nM for the second.

B27 and B28 cannot be ordered by “CHO-hCD40L-driven Human B Cell Proliferation EC50” value: greater than 7000 nM for the first, greater than 7000 nM for the second.

First: B1
Second: B2
The “T-B cell MLR EC50” value of the first is 2-fold lower: 8.7 nM for the first, 17 nM for the second.

B5 and B6 are within 1.5-fold of each other in “T-B cell MLR EC50” value: 13.8 nM for the first, 9.7 nM for the second.

In the case of B35, the “T-B cell MLR EC50” value is reported as 83 nM.

Going from B1 to B2, the “hIZCD40L-driven Human B Cell Proliferation EC50” value rises from 0.079 nM to 0.17 nM (2.2-fold).

B3 and B4 are within 1.5-fold of each other in “hIZCD40L-driven Human B Cell Proliferation EC50” value: 0.31 nM for the first, 0.36 nM for the second.

B5 and B6 are within 1.5-fold of each other in “hIZCD40L-driven Human B Cell Proliferation EC50” value: 0.19 nM for the first, 0.14 nM for the second.

First: B7
Second: B8
The “hIZCD40L-driven Human B Cell Proliferation EC50” value of the first is 13-fold lower: 0.31 nM for the first, 4 nM for the second.

Going from B9 to B10, the “hIZCD40L-driven Human B Cell Proliferation EC50” value falls from 8 nM to 5 nM (1.6-fold).

Going from B11 to B12, the “hIZCD40L-driven Human B Cell Proliferation EC50” value falls from 3 nM to 2 nM (1.5-fold).

Going from B13 to B14, the “hIZCD40L-driven Human B Cell Proliferation EC50” value falls from 3 nM to 2 nM (1.5-fold).

Going from B15 to B16, the “hIZCD40L-driven Human B Cell Proliferation EC50” value falls from greater than 7000 nM to 141 nM.

First: B17
Second: B18
The “hIZCD40L-driven Human B Cell Proliferation EC50” value of the first is lower: 24 nM for the first, greater than 7000 nM for the second.

B19 and B20 are within 1.5-fold of each other in “hIZCD40L-driven Human B Cell Proliferation EC50” value: 277 nM for the first, 387 nM for the second.

Compared with B21, B22 is higher in “hIZCD40L-driven Human B Cell Proliferation EC50” value: 233 nM for the first, greater than 7000 nM for the second.

B23 and B24 cannot be ordered by “hIZCD40L-driven Human B Cell Proliferation EC50” value: greater than 7000 nM for the first, greater than 7000 nM for the second.

B25 and B26 cannot be ordered by “hIZCD40L-driven Human B Cell Proliferation EC50” value: greater than 7000 nM for the first, greater than 7000 nM for the second.

B27 and B28 cannot be ordered by “hIZCD40L-driven Human B Cell Proliferation EC50” value: greater than 7000 nM for the first, greater than 7000 nM for the second.

B29 and B30 cannot be ordered by “hIZCD40L-driven Human B Cell Proliferation EC50” value: greater than 7000 nM for the first, greater than 7000 nM for the second.

B31 and B32 cannot be ordered by “hIZCD40L-driven Human B Cell Proliferation EC50” value: greater than 7000 nM for the first, greater than 7000 nM for the second.

Compared with B33, B34 is lower in “hIZCD40L-driven Human B Cell Proliferation EC50” value: greater than 7000 nM for the first, 250 nM for the second.

Going from B35 to B36, the “hIZCD40L-driven Human B Cell Proliferation EC50” value rises from 0.6 nM to 2 nM (3.3-fold).

B37 and B38 are within 1.5-fold of each other in “hIZCD40L-driven Human B Cell Proliferation EC50” value: 5 nM for the first, 4 nM for the second.

B39 was tested, and the “hIZCD40L-driven Human B Cell Proliferation EC50” value was 1 nM.
